# According to paper PMC7282817:
# Biological target: Spen RRM2-4 RRM3 Mt ((SHARP named as human homolog for the pET28a constructs; gene listed as mouse NM_019763.2)) (UniProt Q96T58)
# Assay: fluorescence anisotropy
# Conditions: pH 8.3; FA: 45 mM KCl, 5 mM NaCl, 50 mM Tris pH 7.5 (WT) or 8.3 (RRM3 Mt), 5% glycerol, RNA 1-3 nM, room temperature 40-60 min; competition EMSA: 50 mM Tris pH 7.5 …
# Sequence of UniProt Q96T58 (Q96T58 whole entry): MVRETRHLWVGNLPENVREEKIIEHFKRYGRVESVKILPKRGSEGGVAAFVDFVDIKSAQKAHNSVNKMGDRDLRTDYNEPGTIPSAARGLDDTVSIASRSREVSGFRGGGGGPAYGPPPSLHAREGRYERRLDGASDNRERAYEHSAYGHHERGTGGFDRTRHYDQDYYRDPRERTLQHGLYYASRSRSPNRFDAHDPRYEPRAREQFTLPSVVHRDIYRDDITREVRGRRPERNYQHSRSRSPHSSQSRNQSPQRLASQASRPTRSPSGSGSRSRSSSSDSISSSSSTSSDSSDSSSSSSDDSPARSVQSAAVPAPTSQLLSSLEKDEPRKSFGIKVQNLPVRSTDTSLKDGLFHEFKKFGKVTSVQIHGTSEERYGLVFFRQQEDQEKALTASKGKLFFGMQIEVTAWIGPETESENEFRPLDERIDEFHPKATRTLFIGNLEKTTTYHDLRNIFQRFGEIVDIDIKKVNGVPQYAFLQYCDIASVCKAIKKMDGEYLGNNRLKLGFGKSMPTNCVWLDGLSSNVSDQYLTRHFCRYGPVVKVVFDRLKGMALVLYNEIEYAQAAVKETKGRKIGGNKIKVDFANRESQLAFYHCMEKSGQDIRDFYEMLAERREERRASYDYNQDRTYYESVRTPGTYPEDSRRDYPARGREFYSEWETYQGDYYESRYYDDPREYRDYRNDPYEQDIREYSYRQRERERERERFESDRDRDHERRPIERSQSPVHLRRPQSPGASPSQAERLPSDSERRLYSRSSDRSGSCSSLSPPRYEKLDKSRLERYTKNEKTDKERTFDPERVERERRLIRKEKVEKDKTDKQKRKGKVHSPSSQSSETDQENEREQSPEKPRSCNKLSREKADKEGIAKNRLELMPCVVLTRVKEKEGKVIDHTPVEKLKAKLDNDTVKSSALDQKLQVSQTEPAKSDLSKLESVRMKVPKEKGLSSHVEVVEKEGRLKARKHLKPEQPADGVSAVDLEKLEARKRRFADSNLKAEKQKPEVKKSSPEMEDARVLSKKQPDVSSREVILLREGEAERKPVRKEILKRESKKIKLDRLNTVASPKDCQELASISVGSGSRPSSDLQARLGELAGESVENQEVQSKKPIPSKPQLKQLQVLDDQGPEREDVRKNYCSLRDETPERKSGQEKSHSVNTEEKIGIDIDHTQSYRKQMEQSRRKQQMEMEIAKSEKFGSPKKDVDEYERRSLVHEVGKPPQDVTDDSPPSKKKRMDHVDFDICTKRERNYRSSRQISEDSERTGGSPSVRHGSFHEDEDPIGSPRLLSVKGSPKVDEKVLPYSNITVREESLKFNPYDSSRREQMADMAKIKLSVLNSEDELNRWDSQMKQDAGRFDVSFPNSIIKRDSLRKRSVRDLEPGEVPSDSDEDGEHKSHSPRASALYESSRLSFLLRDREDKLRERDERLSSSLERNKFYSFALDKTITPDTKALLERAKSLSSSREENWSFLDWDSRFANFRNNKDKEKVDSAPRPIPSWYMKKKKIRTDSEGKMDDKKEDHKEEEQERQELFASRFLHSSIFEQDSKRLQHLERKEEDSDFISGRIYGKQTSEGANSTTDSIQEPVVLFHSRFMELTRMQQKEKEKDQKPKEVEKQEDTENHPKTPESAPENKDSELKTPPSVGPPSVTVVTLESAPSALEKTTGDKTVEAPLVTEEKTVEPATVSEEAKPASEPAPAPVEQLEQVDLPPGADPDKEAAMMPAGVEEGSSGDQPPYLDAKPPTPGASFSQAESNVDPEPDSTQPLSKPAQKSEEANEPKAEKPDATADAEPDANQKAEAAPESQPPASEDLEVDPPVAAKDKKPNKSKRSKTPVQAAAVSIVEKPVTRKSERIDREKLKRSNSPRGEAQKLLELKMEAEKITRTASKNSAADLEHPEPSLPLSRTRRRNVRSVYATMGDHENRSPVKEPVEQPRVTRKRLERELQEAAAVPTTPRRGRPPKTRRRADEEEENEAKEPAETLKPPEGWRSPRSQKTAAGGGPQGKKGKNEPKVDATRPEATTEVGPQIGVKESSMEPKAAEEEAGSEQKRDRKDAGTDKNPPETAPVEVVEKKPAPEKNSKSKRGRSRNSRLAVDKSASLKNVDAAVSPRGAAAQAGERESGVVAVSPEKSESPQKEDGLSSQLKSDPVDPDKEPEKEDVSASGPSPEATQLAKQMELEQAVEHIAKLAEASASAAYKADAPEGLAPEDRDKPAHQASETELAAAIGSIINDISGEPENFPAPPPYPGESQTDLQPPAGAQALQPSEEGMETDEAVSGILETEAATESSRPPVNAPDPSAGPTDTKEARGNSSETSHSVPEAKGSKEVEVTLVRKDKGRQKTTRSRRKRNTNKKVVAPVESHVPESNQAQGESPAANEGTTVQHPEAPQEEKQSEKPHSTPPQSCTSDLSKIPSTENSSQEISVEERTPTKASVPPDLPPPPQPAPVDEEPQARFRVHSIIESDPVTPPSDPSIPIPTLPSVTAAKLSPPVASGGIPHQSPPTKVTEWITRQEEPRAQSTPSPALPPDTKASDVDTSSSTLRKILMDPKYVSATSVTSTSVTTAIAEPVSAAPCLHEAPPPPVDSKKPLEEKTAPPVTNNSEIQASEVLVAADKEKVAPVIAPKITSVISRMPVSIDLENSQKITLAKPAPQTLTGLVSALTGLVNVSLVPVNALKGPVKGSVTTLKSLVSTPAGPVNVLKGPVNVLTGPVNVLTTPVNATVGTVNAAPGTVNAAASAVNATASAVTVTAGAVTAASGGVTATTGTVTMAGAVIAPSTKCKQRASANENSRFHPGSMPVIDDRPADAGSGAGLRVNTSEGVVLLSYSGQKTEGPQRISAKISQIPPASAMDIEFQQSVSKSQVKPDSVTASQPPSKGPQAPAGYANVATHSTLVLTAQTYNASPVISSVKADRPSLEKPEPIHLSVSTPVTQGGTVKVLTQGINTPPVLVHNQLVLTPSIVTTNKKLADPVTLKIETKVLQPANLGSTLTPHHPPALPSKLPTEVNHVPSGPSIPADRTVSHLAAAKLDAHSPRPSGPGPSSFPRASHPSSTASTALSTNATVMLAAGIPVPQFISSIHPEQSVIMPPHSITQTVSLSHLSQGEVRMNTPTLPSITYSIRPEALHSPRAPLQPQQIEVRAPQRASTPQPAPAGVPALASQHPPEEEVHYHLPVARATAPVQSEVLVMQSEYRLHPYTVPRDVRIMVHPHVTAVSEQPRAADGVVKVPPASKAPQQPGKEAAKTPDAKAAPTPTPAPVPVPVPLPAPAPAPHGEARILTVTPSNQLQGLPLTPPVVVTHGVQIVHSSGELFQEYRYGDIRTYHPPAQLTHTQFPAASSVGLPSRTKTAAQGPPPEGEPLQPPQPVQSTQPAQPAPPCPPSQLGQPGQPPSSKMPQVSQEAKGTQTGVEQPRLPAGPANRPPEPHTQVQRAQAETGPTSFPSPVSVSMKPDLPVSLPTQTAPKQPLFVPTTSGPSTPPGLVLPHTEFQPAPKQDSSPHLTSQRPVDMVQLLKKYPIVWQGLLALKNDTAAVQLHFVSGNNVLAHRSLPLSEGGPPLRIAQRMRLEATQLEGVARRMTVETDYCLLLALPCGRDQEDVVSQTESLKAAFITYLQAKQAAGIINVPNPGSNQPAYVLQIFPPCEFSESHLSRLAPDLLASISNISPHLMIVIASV
sequence,measurement,value
GAUCAGAGUAACUGUCUUGGCUACAUUCUUUUCUCUCGCCACCUAGCCCCUCUUCUCUUCCAGGUUUCCAAAAUGCCUUUCCAGGCUAGAACCCAGGUUGUGGUCUGCUGG [ERV 302 (111 nt)],binding signal (affinity relative to RRM2-4),0.5
GGUACCUUAAAUCCUUGCUCUCACCCAAAAGAUUCAGAGACAAUAUCCUUUUAUUACUUAGGGUUUUAGUUUACUACAAAAGUUUCUACAAAAAAUAAAGCUUUUAUAA [ERV 411 (109 nt)],binding signal (affinity relative to RRM2-4),0.5
GAAAUUUCUCUCUGGGCCUUAUAGCAGGAGUACUCUGUUCCCUUUUGUGUCUUGUCUAAUGUCCGGUGCACCAAUCUGUUCUCGUGUUCAAUUCAUGUAUGUUCGUGUCCAGU [ERV 495 (113 nt)],binding signal (affinity relative to RRM2-4),0.5
GGAACUCGUUCCUUCUCCUUAGCCCAUCGGGGCCAUGGAUACCUGCUUUUAACCUUUCUCGGUCCAUCGGGACCUCGGAUACCUG [Xist A-repeat (85 nt)],binding signal (affinity relative to RRM2-4),0.5
GAUUCCAGGCAGAACUGUUGAGCAUAGAUAAUUUUCCCCCCUCAGGCCAGCUUUUUCUUUUUUUAAAUUUUGUUAAUAAAAGGGAG [ERV 205 (86 nt)],binding signal (affinity relative to RRM2-4),0.5
GGUUAAAACUGCUAUUGUUCCAUUGACUGCAGCUUGCAGUUUGAUUUCAAAUUUAAGAUCUUUAAUUCACCUGUAUACUGUAAUUAAGAUAAUUACAAGAGUAAUCAUCUUAUG [ERV 509 (114 nt)],binding signal (affinity relative to RRM2-4),0.5
